Bridge positions count the residues as written; N and C are the ends. Square brackets hold non-standard residues; d marks the D form. Ends that are not written are not given here. * marks the point of attachment. Acetyl(2-(4-imidazolyl)) = O=C(Cc1c[nH]cn1)*; Aib = CC(C)(N)C(=O)O
Experiments:
Test in all cases: cell-based or functional assay
human GLP-1 receptor = human GLP-1 receptor (human, UniProt P43220 24-463)
human GCG receptor = human GCG receptor (human, UniProt P47871 26-477)
human GIP receptor = molecular target: T1, human GIP receptor (human, UniProt P48546 22-466)
T1 sequence (looked up): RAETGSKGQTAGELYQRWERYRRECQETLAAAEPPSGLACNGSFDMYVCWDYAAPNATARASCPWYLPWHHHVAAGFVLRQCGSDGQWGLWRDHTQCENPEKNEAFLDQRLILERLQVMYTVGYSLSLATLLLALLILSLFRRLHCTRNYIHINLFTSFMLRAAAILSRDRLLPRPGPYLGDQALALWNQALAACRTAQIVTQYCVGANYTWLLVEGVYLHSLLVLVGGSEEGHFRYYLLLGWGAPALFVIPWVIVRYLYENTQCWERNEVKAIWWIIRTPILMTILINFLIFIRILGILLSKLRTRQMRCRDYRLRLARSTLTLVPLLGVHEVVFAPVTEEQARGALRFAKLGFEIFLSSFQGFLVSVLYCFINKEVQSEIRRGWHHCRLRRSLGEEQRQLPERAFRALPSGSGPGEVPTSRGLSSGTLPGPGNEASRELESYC

Sequence of human GCG receptor (P47871 26-477): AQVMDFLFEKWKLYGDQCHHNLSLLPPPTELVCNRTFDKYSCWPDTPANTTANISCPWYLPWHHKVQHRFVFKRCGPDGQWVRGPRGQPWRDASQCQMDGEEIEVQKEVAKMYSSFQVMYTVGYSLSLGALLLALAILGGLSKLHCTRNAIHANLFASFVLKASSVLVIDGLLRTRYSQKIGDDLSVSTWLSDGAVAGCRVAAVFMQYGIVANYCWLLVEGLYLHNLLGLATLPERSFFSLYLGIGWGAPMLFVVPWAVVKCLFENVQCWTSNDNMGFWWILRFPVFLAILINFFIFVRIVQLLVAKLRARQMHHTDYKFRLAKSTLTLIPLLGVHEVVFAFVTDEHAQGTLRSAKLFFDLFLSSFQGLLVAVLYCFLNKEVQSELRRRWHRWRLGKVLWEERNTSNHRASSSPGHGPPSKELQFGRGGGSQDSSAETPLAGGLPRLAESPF

Row | Binder | In vitro activity (%) compared with native peptide, vs GLP-1 (human GLP-1 receptor) [%] | In vitro activity (%) compared with native peptide, vs Glucagon (human GCG receptor) [%] | In vitro activity (%) compared with native peptide, vs GIP (human GIP receptor) [%]
1 | [Acetyl(2-(4-imidazolyl))][Aib]EGTFTSDYSIAMDEIHQKDFVNWLLAQKC (bridge 16-20; not fully specified) [triple agonist of SEQ ID NO: 90] | 7.4 | < 0.1 | < 0.1
2 | [Acetyl(2-(4-imidazolyl))]GQGTFTSDLSKQMDSERAREFIEWLKNTGPSSGAPPPSHG (not fully specified) [triple agonist of SEQ ID NO: 18] | < 0.1 | < 0.1 | < 0.1
3 | Y[Aib]QGTFTSDYSKYLDEKRAKEFVQWLLDHCPSSGQPPPS (bridge 16-20) [triple agonist of SEQ ID NO: 96] | 34.4 | 195 | 5.2
4 | Y[Aib]QGTFTSDYSKALDEKAAKDFVNWLLDQHPSSGQPPPSC (bridge 16-20) [triple agonist of SEQ ID NO: 102] | 23.3 | 29.5 | 58
5 | {Acetyl(2-(4-imidazolyl))}-[Aib]QGTFTSDYSKYLDEKRQKEFVNWLLAQKC (bridge 15-19; numbers in words are those of the source; also: ring between positions 16 and 20, type not given here) [triple agonist of SEQ ID NO: 93] | 5.7 | 0.3 | 0.7
6 | H[Aib]QGTFTSDVSSYLDGQAQKEFIAWLVKGC (not fully specified) [triple agonist of SEQ ID NO: 2] | 5.9 | < 0.1 | < 0.1
7 | [Acetyl(2-(4-imidazolyl))][Aib]QGTFTSDYSIAMDEIHQKDFVNWLLAQKC (bridge 16-20; not fully specified) [triple agonist of SEQ ID NO: 92] | 0.8 | < 0.1 | 0.4
8 | {Acetyl(2-(4-imidazolyl))}-[Aib]QGTFTSDYSIAMDEIHQKDFVNWLLNTKC (bridge 15-19; numbers in words are those of the source; also: ring between positions 16 and 20, type not given here) [triple agonist of SEQ ID NO: 94] | 0.5 | < 0.1 | < 0.1
9 | Y[Aib]QGTFTSDYSKYLDEKRAKEFVQWLLCHHPSSGQPPPS (bridge 16-20) [triple agonist of SEQ ID NO: 95] | 2.1 | 0.4 | < 0.1
10 | Y[Aib]QGTFTSDYSKALDEKAAKEFVQWLLDQHPSSGQPPPSC (bridge 16-20) [triple agonist of SEQ ID NO: 100] | 42.2 | 12.7 | 118
11 | [Acetyl(2-(4-imidazolyl))]GEGTFISDLSKYMDEQAVQLFVEWLMAGGPSSGAPPPSHG (not fully specified) [triple agonist of SEQ ID NO: 12] | 0.4 | < 0.1 | < 0.1
12 | [Acetyl(2-(4-imidazolyl))]GEGTFISDYSIQLDEIAVQDFVEWLLAQKPSSGAPPPSHG [triple agonist of SEQ ID NO: 13] | < 0.1 | < 0.1 | < 0.1
13 | [Acetyl(2-(4-imidazolyl))]GQGTFTSDLSKQMDEERAREFIEWLLAQKPSSGAPPPSHG (not fully specified) [triple agonist of SEQ ID NO: 17] | 0.2 | < 0.1 | < 0.1
14 | [Acetyl(2-(4-imidazolyl))]GQGTFTSDLSKQMDSEAQQLFIEWLKNGGPSSGAPPPSHG (not fully specified) [triple agonist of SEQ ID NO: 16] | 2.1 | < 0.1 | < 0.1
15 | Y[Aib]QGTFTSDYSKALDEKAAKEFVNWLLDHHPSSGQPPPSC (bridge 16-20) [triple agonist of SEQ ID NO: 98] | 28.1 | 8.2 | 47.1
16 | Y[Aib]QGTFTSDYSKYLDEKRAKEFVQWLLDCHPSSGQPPPS (bridge 16-20) [triple agonist of SEQ ID NO: 97] | 10.5 | 62.8 | 2.6
17 | {Acetyl(2-(4-imidazolyl))}-[Aib]QGTFTSDYSKYLDEKRQKEFVQWLLNTKC (bridge 15-19; numbers in words are those of the source; also: ring between positions 16 and 20, type not given here) [triple agonist of SEQ ID NO: 88] | 9.6 | 0.3 | < 0.1
18 | {Acetyl(2-(4-imidazolyl))}-[Aib]QGTFTSDYSKYLDEKRQKEFVQWLLDTKC (bridge 15-19; numbers in words are those of the source; also: ring between positions 16 and 20, type not given here) [triple agonist of SEQ ID NO: 89] | 7.1 | 0.7 | < 0.1
19 | Y[Aib]QGTFTSDYSKALDEKAAKEFVNWLLDQHPSSGQPPPSC (bridge 16-20) [triple agonist of SEQ ID NO: 101] | 23.2 | 13.9 | 40.1
20 | [Acetyl(2-(4-imidazolyl))]GQGTFTSDYSIQLDEIAVRDFVEWLKNGGPSSGAPPPSHG (not fully specified) [triple agonist of SEQ ID NO: 14] | 28 | < 0.1 | < 0.1
21 | [Acetyl(2-(4-imidazolyl))]GEGTFTSDLSKYLDSRRQQLFVQWLKAGGPSSGAPPPSHG (not fully specified) [triple agonist of SEQ ID NO: 11] | 1.4 | < 0.1 | < 0.1
22 | H[Aib]QGTFTSDVSKYLDGQAAQEFVAWLLAGGGPSSGAPPPSC (not fully specified) [triple agonist of SEQ ID NO: 10] | 46 | < 0.1 | < 0.1
23 | Y[Aib]QGTFTSDYSKALDEKAAKDFVNWLLDHHPSSGQPPPSC (bridge 16-20) [triple agonist of SEQ ID NO: 99] | 20.9 | 14.9 | 57.7
24 | {Acetyl(2-(4-imidazolyl))}-[Aib]QGTFTSDYSIAMDEIHQKDFVNWLLNTC (bridge 15-19; numbers in words are those of the source; also: ring between positions 16 and 20, type not given here) [triple agonist of SEQ ID NO: 87] | 0.9 | < 0.1 | < 0.1
25 | {Acetyl(2-(4-imidazolyl))}-[Aib]EGTFTSDYSIAMDEIHQKDFVDWLLAEKC (bridge 15-19; numbers in words are those of the source; also: ring between positions 16 and 20, type not given here) [triple agonist of SEQ ID NO: 91] | 31.9 | 16.8 | 0.3
